Experimental data from US11312984B2, “High-purity steviol glycosides” (PURECIRCLE SDN BHD, priority 2013, dated 2022).

B1: S115N06 E1: hypothetical protein OsJ_04191, Oryza sativa Japonica Group, SEQ ID NO: 6 (protein, listed as Oryza sativa)
chain: MHVVMLPWLAFGHILPFAEFAKRVARQGHRVTLFSTPRNTRRLIDVPPSLAGRIRVVDIPLPRVEHLPEHAEATIDLPSNDLRPYLRRAYDEAFSRELSRLLQETGPSRPDWVLADYAAYWAPAAASRHGVPCAFLSLFGAAALCFFGPAETLQGRGPYAKTEPAHLTAVPEYVPFPTTVAFRGNEARELFKPSLIPDESGVSESYRFSQSIEGCQLVAVRSNQEFEPEWLELLGELYQKPVIPIGMFPPPPPQDVAGHEETLRWLDRQEPNSVVYAAFGSEVKLTAEQLQRIALGLEASELPFIWAFRAPPDAGDGDGLPGGFKERVNGRGVVCRGWVPQVKFLAHASVGGFLTHAGWNSIAEGLANGVRLVLLPLMFEQGLNARQLAEKKVAVEVARDEDDGSFAANDIVDALRRVMVGEEGDEFGVKVKELAKVFGDDEVNDRYVRDFLKCLSEYKMQRQG
B2: UGTSL2: UGTSL2, GI_460410132, Solanum lycopersicum UDP-glucosyltransferase, SEQ ID NO: 9 (protein, listed as Solanum lycopersicum)
chain: MATNLRVLMFPWLAYGHISPFLNIAKQLADRGFLIYLCSTRINLESIIKKIPEKYADSIHLIELQLPELPELPPHYHTTNGLPPHLNPTLHKALKMSKPNFSRILQNLKPDLLIYDVLQPWAEHVANEQNIPAGKLLTSCAAVFSYFFSFRKNPGVEFPFPAIHLPEVEKVKIREILAKEPEEGGRLDEGNKQMMLMCTSRTIEAKYIDYCTELCNWKVVPVGPPFQDLITNDADNKELIDWLGTKHENSTVFVSFGSEYFLSKEDMEEVAFALELSNVNFIWVARFPKGEERNLEDALPKGFLERIGERGRVLDKFAPQPRILNHPSTGGFISHCGWNSAMESIDFGVPIIAMPIHNDQPINAKLMVELGVAVEIVRDDDGKIHRGEIAETLKSVVTGETGEILRAKVREISKNLKSIRDEEMDAVAEELIQLCRNSNKSK
B3: S115N05 A7: UGTSL, Solanum lycopersicum cyanidin-3-O-glucoside 2-O-glucuronosyltransferase-like, SEQ ID NO: 5 (protein, listed as Solanum lycopersicum)
chain: MSPKLHKELFFHSLYKKTRSNHTMATLKVLMFPFLAYGHISPYLNVAKKLADRGFLIYFCSTPINLKSTIEKIPEKYADSIHLIELHLPELPQLPPHYHTTNGLPPNLNQVLQKALKMSKPNFSKILQNLKPDLVIYDILQRWAKHVANEQNIPAVKLLTSGAAVFSYFFNVLKKPGVEFPFPGIYLRKIEQVRLSEMMSKSDKEKELEDDDDDDDLLVDGNMQIMLMSTSRTIEAKYIDFCTALTNWKVVPVGPPVQDLITNDVDDMELIDWLGTKDENSTVFVSFGSEYFLSKEDMEEVAFALELSNVNFIWVARFPKGEERNLEDALPKGFLERIGERGRVLDKFAPQPRILNHPSTGGFISHCGWNSAMESIDFGVPIIAMPMHLDQPMNARLIVELGVAVEIVRDDDGKIHRGEIAETLKGVITGKTGEKLRAKVRDISKNLKTIRDEEMDAAAEELIQLCRNGN
B4: S115N01 G2: UDP-glycosyltransferase, Avena strigosa, SEQ ID NO: 4 (protein, listed as Avena strigosa)
chain: MAVKDEQQSPLHILLFPFLAPGHLIPIADMAALFASRGVRCTILTTPVNAAIIRSAVDRANDAFRGSDCPAIDISVVPFPDVGLPPGVENGNALTSPADRLKFFQAVAELREPFDRFLADNHPDAVVSDSFFHWSTDAAAEHGVPRLGFLGSSMFAGSCNESTLHNNPLETAADDPDALVSLPGLPHRVELRRSQMMDPKKRPDHWALLESVNAADQKSFGEVFNSFHELEPDYVEHYQTTLGRRTWLVGPVALASKDMAGRGSTSARSPDADSCLRWLDTKQPGSVVYVSFGTLIRFSPAELHELARGLDLSGKNFVWVLGRAGPDSSEWMPQGFADLITPRGDRGFIIRGWAPQMLILNHRALGGFVTHCGWNSTLESVSAGVPMVTWPRFADQFQNEKLIVEVLKVGVSIGAKDYGSGIENHDVIRGEVIAESIGKLMGSSEESDAIQRKAKDLGAEARSAVENGGSSYNDVGRLMDELMARRSSVKVGEDIIPTNDGL
B5: S115N01 A1: UDP-glucosyltransferase Os03g0702500, Oryza sativa Japonica Group, SEQ ID NO: 3 (protein, listed as Oryza sativa)
chain: MDDAHSSQSPLHVVIFPWLAFGHLLPCLDLAERLAARGHRVSFVSTPRNLARLPPVRPELAELVDLVALPLPRVDGLPDGAEATSDVPFDKFELHRKAFDGLAAPFSAFLDTACAGGKRPDWVLADLMHHWVALASQERGVPCAMILPCSAAVVASSAPPTESSADQREAIVRSMGTAAPSFEAKRATEEFATEGASGVSIMTRYSLTLQRSKLVAMRSCPELEPGAFTILTRFYGKPVVPFGLLPPRPDGARGVSKNGKHDAIMQWLDAQPAKSVVYVALGSEAPMSADLLRELAHGLDLAGTRFLWAMRKPAGVDADSVLPAGFLGRTGERGLVTTRWAPQVSILAHAAVCAFLTHCGWGSVVEGLQFGHPLIMLPILGDQGPNARILEGRKLGVAVPRNDEDGSFDRGGVAGAVRAVVVEEEGKTFFANARKLQEIVADREREERCIDEFVQHLTSWNELKNNSDGQYP
B6: S115N06 C2: UDP-glucoronosyl/UDP-glucosyl transferase family protein, Arabidopsis lyrata subsp. lyrata, SEQ ID NO: 7 (protein, listed as Arabidopsis lyrata)
chain: MDDKKEEVMHIAMFPWLAMGHLLPFLRLSKLLAQKGHKISFISTPRNILRLPKLPSNLSSSITFVSFPLPSISGLPPSSESSMDVPYNKQQSLKAAFDLLQPPLTEFLRLSSPDWIIYDYASHWLPSIAKELGISKAFFSLFNAATLCFMGPSSSLIEESRSTPEDFTVVPPWVPFKSTIVFRYHEVSRYVEKTDEDVTGVSDSVRFGYTIDGSDAVFVRSCPEFEPEWFSLLQDLYRKPVFPIGFLPPVIEDDDDDTTWVRIKEWLDKQRVNSVVYVSLGTEASLRREELTELALGLEKSETPFFWVLRNEPQIPDGFEERVKGRGMVHVGWVPQVKILSHESVGGFLTHCGWNSVVEGIGFGKVPIFLPVLNEQGLNTRLLQGKGLGVEVLRDERDGSFGSDSVADSVRLVMIDDAGEEIREKVKLMKGLFGNMDENIRYVDELVGFMRNDESSQLKEEEEEDDCSDDQSSEVSSETDEKELNLDLKEEKRRISVYKSLSSEFDDYVANEKMG

Experiments:
[1] = Sweetness of reb M compared to a 10% sucrose solution
Text: The high purity reb M obtained in this invention, having a molecular weight of 1291.29, a molecular formula of C56H90O33, CAS registry number 1220616-44-3, and the structure presented in FIG. 1, is in the form of a white and odorless powder. The compound is about 200 times sweeter than sugar when compared to a 10% sucrose solution.

[2] = Catalytic test of in-vitro expressed UDP-glucosyltransferases, Rebaudioside A to Rebaudioside D (HPLC); format: biochemical; conditions: 0.5 mM Rebaudioside A, 30° C.; for Steviol glycoside conversion in reaction mixture, Reb A (Retention Time ~9.1 min): remaining substrate
Description: The prepared expression medium mix was added to the plasmid solution and the solution was allowed to incubate at 30° C. for 3 hours while mixing the mixture every 45 minutes. 5 μL of the mixture was frozen whereas the remainder was used for the catalytic test for the conversion of Rebaudioside A to Rebaudioside D.
430 μL of a reaction mixture containing 0.5 mM Rebaudioside A, 3 mM MgCl2, 50 mM phosphate buffer (pH7.2) and 2.5 mM UDP-glucose was added to a 1.5 mL sterile microtube. 52 μL of the enzyme expression medium was added and the resulting mixture was allowed to react at 30° C. for 24 hours. 125 μL samples were taken after 2 hours, 16 hours and 24 hours and added to a 115 μL of 60% methanol and 10 μL of 2 N H2SO4. The quenched sample was centrifuged at 18,000 g for 2 minutes at RT. 200 μL was transferred to an HPLC vial and analyzed.
The HPLC assay was performed as follows:
430 μL of a reaction mixture containing 0.5 mM Rebaudioside A, 3 mM MgCl2, 50 mM phosphate buffer (pH7.2) and 2.5 mM UDP-glucose was added to a 1.5 mL sterile microtube. 52 μL of the enzyme expression medium was added and the resulting mixture was allowed to react at 30° C. for 24 hours. 125 μL samples were taken after 2 hours, 16 hours and 24 hours and added to a 115 μL of 60% methanol and 10 μL of 2 N H2SO4. The quenched sample was centrifuged at 18,000 g for 2 minutes at RT. 200 μL was transferred to HPLC vial and analyzed.
The HPLC assay was performed as described in EXAMPLE 20.

[3] = Rubusoside conversion products with UGTSL, UGTSL2 and UGTLB by LC-MS; format: biochemical; conditions: reaction time UGTSL2 2 hrs, UGTLB 5 hrs, UGTSL 45 hrs
Description: (§1) Conversion of stevioside with UGTSL and UGTSL2 was conducted in similar manner to Example 28, and the conversion of rubusoside with UGTSL and UGTSL2 was conducted similarly to Example 29. Conversions of rubusoside and stevioside with UGTLB was conducted similarly to Example 32.
(§2) The reaction mixtures were analyzed by LCMS to determine all reaction products.

[4] = Stevioside conversion products with UGTSL, UGTSL2 and UGTLB by LC-MS; format: biochemical; conditions: reaction time UGTSL2 2 hrs, UGTLB 2 hrs, UGTSL 22 hrs
Description: as §1, §2

| Molecule | times sweeter than sugar [1] | Steviol glycoside conversion in reaction mixture, Reb D (Retention Time ~5.8 min) [2] [% area] | Steviol glycoside conversion in reaction mixture, Reb UNK (Retention Time ~6.7 min) [2] [% area] | Steviol glycoside conversion in reaction mixture, Reb A (Retention Time ~9.1 min) [2] [% area] | Rubusoside conversion products, LC-MS peak area ratio: Reb D [3] [%] | Rubusoside conversion products, LC-MS peak area ratio: Reb E [3] [%] | Rubusoside conversion products, LC-MS peak area ratio: Rub [3] [%] | Rubusoside conversion products, LC-MS peak area ratio: Stev [3] [%] | Stevioside conversion products, LC-MS peak area ratio: Reb D [4] [%] | Stevioside conversion products, LC-MS peak area ratio: Reb E [4] [%] | Stevioside conversion products, LC-MS peak area ratio: Stev [4] [%] |
| --- | --- | --- | --- | --- | --- | --- | --- | --- | --- | --- | --- |
| C=C1C[C@@]23CC[C@H]4[C@@](C)(CCC[C@@]4(C)C(=O)O[C@@H]4O[C@H](CO)[C@@H](O)[C@H](O[C@@H]5O[C@H](CO)[C@@H](O)[C@H](O)[C@H]5O)[C@H]4O[C@@H]4O[C@H](CO)[C@@H](O)[C@H](O)[C@H]4O)[C@@H]2CC[C@]1(O[C@@H]1O[C@H](CO)[C@@H](O)[C@H](O[C@@H]2O[C@H](CO)[C@@H](O)[C@H](O)[C@H]2O)[C@H]1O[C@@H]1O[C@H](CO)[C@@H](O)[C@H](O)[C@H]1O)C3 [reb M, rebaudioside M] | about 200 times | – | – | – | – | – | – | – | – | – | – |
| B1 | – | 0.14 | 7.0 | 92.8 | – | – | – | – | – | – | – |
| B2 | – | – | – | – | 6.73 | 52.88 | 3.54 | 2.12 | 1.70 | 42.56 | 20.01 |
| B3 | – | – | 23.3 | 46.7 | 3.45 | 35.88 | 7.82 | 2.37 | 0.54 | 49.68 | 25.24 |
| B4 | – | 0.6 | – | 99.4 | – | – | – | – | – | – | – |
| B5 | – | 2.1 | – | 96.7 | – | – | – | – | – | – | – |
| B6 | – | 0.28 | 3.9 | 95.8 | – | – | – | – | – | – | – |
